Measurements reported in patent publication US10450368.

Legend:
[1] = target: CH505 TF loop D mutant M20 Env (pseudovirus) (HIV-1); assay: cell-based or functional assay
[2] = target: CH505 TF loop D mutant M7 Env (pseudovirus) (HIV-1); assay: cell-based or functional assay
[3] = target: CH505 TF loop D mutant M8 Env (pseudovirus) (HIV-1); assay: cell-based or functional assay
[4] = target: CH505 TF loop D mutant M9 Env (pseudovirus) (HIV-1); assay: cell-based or functional assay
[5] = target: Centromere B (UniProt P07199); assay: AtheNA, Ab 25 ug/ml
[6] = target: Histones; assay: AtheNA, Ab 25 ug/ml
[7] = target: Jo-1 (UniProt P12081); assay: AtheNA, Ab 25 ug/ml
[8] = target: RNP (ribonucleoprotein); assay: AtheNA, Ab 25 ug/ml
[9] = target: SSA; assay: AtheNA, Ab 25 ug/ml
[10] = target: SSB (UniProt P05455); assay: AtheNA, Ab 25 ug/ml
[11] = target: Scl-70 (UniProt P11387); assay: AtheNA, Ab 25 ug/ml
[12] = target: Sm (Smith antigen); assay: AtheNA, Ab 25 ug/ml
[13] = target: Centromere B (UniProt P07199); assay: AtheNA, Ab 25 ug/ml; remark: listed apart in the source
[14] = target: Histones; assay: AtheNA, Ab 25 ug/ml; remark: listed apart in the source
[15] = target: Jo-1 (UniProt P12081); assay: AtheNA, Ab 25 ug/ml; remark: listed apart in the source
[16] = target: RNP (ribonucleoprotein); assay: AtheNA, Ab 25 ug/ml; remark: listed apart in the source
[17] = target: SSA; assay: AtheNA, Ab 25 ug/ml; remark: listed apart in the source
[18] = target: SSB (UniProt P05455); assay: AtheNA, Ab 25 ug/ml; remark: listed apart in the source
[19] = target: Sm (Smith antigen); assay: AtheNA, Ab 25 ug/ml; remark: listed apart in the source
[20] = target: Centromere B (UniProt P07199); assay: AtheNA, Ab 12.5 ug/ml
[21] = target: Histones; assay: AtheNA, Ab 12.5 ug/ml
[22] = target: Jo-1 (UniProt P12081); assay: AtheNA, Ab 12.5 ug/ml
[23] = target: RNP (ribonucleoprotein); assay: AtheNA, Ab 12.5 ug/ml
[24] = target: SSA; assay: AtheNA, Ab 12.5 ug/ml
[25] = target: SSB (UniProt P05455); assay: AtheNA, Ab 12.5 ug/ml
[26] = target: Scl-70 (UniProt P11387); assay: AtheNA, Ab 12.5 ug/ml
[27] = target: Sm (Smith antigen); assay: AtheNA, Ab 12.5 ug/ml
[28] = target: Centromere B (UniProt P07199); assay: AtheNA, Ab 6.25 ug/ml
[29] = target: Histones; assay: AtheNA, Ab 6.25 ug/ml
[30] = target: Jo-1 (UniProt P12081); assay: AtheNA, Ab 6.25 ug/ml
[31] = target: RNP (ribonucleoprotein); assay: AtheNA, Ab 6.25 ug/ml
[32] = target: SSA; assay: AtheNA, Ab 6.25 ug/ml
[33] = target: SSB (UniProt P05455); assay: AtheNA, Ab 6.25 ug/ml
[34] = target: Scl-70 (UniProt P11387); assay: AtheNA, Ab 6.25 ug/ml
[35] = target: Sm (Smith antigen); assay: AtheNA, Ab 6.25 ug/ml
[36] = target: CH505.M10D8gp120; assay: direct-binding ELISA
[37] = target: CH505.M11D8gp120/293F; assay: direct-binding ELISA
[38] = target: CH505.M19D8gp120; assay: direct-binding ELISA
[39] = target: CH505.M21D8gp120/293F; assay: direct-binding ELISA
[40] = target: CH505.M5D8gp120293F; assay: direct-binding ELISA
[41] = target: CH505.M7D8gp120/293F; assay: direct-binding ELISA
[42] = target: CH505.M9D8gp120/293F; assay: direct-binding ELISA
[43] = target: CH505.TF mutant gp120 M20 (HIV-1); assay: direct-binding ELISA
[44] = target: CH505.TF mutant gp120 M6 (HIV-1); assay: direct-binding ELISA
[45] = target: CH505.TF mutant gp120 M8 (HIV-1); assay: direct-binding ELISA
[46] = target: CH505_w137V201B12.D11gp120 (HIV-1); assay: direct-binding ELISA
[47] = target: CH505_w137V209C12.D11gp120 (HIV-1); assay: direct-binding ELISA
[48] = target: CH505w136.B10D8gp120 (HIV-1); assay: direct-binding ELISA
[49] = target: CH505w136.B12D8gp120 (HIV-1); assay: direct-binding ELISA
[50] = target: CH505w136.B18D8gp120 (HIV-1); assay: direct-binding ELISA
[51] = target: CH505w136.B20D8gp120 (HIV-1); assay: direct-binding ELISA
[52] = target: CH505w136.B27D8gp120 (HIV-1); assay: direct-binding ELISA
[53] = target: CH505w136.B29D8gp120 (HIV-1); assay: direct-binding ELISA
[54] = target: CH505w136.B2D8gp120/293F (HIV-1); assay: direct-binding ELISA
[55] = target: CH505w136.B36D8gp120 (HIV-1); assay: direct-binding ELISA
[56] = target: CH505w136.B3D8gp120/293F (HIV-1); assay: direct-binding ELISA
[57] = target: CH505w136.B4D8gp120 (HIV-1); assay: direct-binding ELISA
[58] = target: CH505w136.B5D8gp120 (HIV-1); assay: direct-binding ELISA
[59] = target: CH505w136.B8D8gp120 (HIV-1); assay: direct-binding ELISA
[60] = target: CH505w160.A1D8gp120 (HIV-1); assay: direct-binding ELISA
[61] = target: CH505w160.C11D8gp120 (HIV-1); assay: direct-binding ELISA
[62] = target: CH505w160.C12D8gp120 (HIV-1); assay: direct-binding ELISA
[63] = target: CH505w160.C14D8gp120 (HIV-1); assay: direct-binding ELISA
[64] = target: CH505w160.C2D8gp120 (HIV-1); assay: direct-binding ELISA
[65] = target: CH505w160.C4D8gp120 (HIV-1); assay: direct-binding ELISA
[66] = target: CH505w160.D1D8gp120 (HIV-1); assay: direct-binding ELISA
[67] = target: CH505w160.D5D8gp120/293F (HIV-1); assay: direct-binding ELISA
[68] = target: CH505w160.T2D8gp120 (HIV-1); assay: direct-binding ELISA
[69] = target: CH505w160.T4D8gp120/293F (HIV-1); assay: direct-binding ELISA

Sequence of Centromere B (P07199 whole entry): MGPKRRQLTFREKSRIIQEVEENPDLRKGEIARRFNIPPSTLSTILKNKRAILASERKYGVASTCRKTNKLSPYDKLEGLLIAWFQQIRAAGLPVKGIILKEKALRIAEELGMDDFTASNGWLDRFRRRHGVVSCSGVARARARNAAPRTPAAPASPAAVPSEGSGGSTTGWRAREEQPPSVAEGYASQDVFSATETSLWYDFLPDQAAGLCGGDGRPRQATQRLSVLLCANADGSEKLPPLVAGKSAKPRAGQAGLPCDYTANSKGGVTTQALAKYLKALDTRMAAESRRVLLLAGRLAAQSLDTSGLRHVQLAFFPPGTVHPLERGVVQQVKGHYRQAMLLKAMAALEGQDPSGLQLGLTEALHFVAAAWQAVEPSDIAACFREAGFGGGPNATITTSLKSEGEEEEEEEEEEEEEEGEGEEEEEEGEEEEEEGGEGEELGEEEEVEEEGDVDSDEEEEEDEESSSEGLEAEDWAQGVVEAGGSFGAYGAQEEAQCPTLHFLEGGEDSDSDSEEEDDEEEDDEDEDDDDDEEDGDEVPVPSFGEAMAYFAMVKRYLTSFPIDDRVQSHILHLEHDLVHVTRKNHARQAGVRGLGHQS
Sequence of Scl-70 (P11387 whole entry): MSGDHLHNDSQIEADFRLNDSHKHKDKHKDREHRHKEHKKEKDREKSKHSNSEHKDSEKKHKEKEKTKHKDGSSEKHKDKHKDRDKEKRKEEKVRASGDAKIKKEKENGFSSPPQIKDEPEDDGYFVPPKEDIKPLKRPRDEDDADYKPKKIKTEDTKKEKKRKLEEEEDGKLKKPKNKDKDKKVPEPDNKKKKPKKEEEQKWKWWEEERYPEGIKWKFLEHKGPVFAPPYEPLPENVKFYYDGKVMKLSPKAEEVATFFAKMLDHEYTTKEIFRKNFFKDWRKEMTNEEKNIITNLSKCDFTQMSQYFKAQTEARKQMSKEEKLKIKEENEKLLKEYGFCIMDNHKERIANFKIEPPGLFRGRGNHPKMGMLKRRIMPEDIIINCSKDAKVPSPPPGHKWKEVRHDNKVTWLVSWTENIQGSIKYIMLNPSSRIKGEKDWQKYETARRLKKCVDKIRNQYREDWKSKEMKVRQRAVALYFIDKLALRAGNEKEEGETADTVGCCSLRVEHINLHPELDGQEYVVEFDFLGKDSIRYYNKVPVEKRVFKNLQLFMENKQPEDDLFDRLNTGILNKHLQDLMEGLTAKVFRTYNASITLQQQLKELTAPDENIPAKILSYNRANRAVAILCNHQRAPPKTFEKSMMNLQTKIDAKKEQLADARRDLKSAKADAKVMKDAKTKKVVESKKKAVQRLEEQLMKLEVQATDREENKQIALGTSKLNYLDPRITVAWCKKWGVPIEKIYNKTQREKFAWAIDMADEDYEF
Sequence of SSB (P05455 whole entry): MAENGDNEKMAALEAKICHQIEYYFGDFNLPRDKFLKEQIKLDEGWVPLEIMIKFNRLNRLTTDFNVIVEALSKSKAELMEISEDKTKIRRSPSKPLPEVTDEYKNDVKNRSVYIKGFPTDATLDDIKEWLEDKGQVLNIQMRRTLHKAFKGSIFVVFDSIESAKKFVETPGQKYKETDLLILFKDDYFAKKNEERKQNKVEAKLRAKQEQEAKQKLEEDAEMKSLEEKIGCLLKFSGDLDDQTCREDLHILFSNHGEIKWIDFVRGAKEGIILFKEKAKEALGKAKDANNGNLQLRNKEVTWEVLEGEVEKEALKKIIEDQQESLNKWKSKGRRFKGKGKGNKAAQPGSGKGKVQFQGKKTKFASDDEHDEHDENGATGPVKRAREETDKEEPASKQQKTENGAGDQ
Sequence of Jo-1 (P12081 whole entry): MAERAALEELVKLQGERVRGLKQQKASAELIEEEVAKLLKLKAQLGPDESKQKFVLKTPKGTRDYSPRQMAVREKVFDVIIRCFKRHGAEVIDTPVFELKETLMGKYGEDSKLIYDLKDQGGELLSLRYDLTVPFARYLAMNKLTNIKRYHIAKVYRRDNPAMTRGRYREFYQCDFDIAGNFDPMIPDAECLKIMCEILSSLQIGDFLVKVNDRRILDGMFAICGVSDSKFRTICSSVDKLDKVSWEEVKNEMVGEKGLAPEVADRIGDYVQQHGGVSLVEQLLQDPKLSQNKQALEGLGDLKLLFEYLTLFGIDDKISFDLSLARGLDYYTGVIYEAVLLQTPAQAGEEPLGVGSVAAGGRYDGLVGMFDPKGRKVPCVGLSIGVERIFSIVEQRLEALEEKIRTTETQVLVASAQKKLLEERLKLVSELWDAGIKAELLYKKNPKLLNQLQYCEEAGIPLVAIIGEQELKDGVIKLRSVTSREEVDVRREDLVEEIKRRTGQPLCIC

CH235.9 N30T (antibody)
neutralization IC50, TZM-bl pseudovirus assay [1]: > 44 µg/mL
neutralization IC50, TZM-bl pseudovirus assay [2]: > 44 µg/mL
fold increase of neutralization IC50 against CH235.9 [3]: 37 fold
neutralization IC50, TZM-bl pseudovirus assay [3]: 24.3 µg/mL
neutralization IC50, TZM-bl pseudovirus assay [4]: > 44 µg/mL

synagis (antibody)
AtheNA signal (relative luminescence units) [5]: 4
AtheNA signal (relative luminescence units) [6]: 5
AtheNA signal (relative luminescence units) [7]: 2
AtheNA signal (relative luminescence units) [8]: 4
AtheNA signal (relative luminescence units) [9]: 3
AtheNA signal (relative luminescence units) [10]: 7
AtheNA signal (relative luminescence units) [11]: 2
AtheNA signal (relative luminescence units) [12]: 3
AtheNA signal (relative luminescence units) [13]: 2
AtheNA signal (relative luminescence units) [14]: 2
AtheNA signal (relative luminescence units) [15]: 4
AtheNA signal (relative luminescence units) [16]: 0
AtheNA signal (relative luminescence units) [17]: 11
AtheNA signal (relative luminescence units) [18]: 4
AtheNA signal (relative luminescence units) [19]: 4
AtheNA signal (relative luminescence units) [20]: 2
AtheNA signal (relative luminescence units) [21]: 3
AtheNA signal (relative luminescence units) [22]: 6
AtheNA signal (relative luminescence units) [23]: 3
AtheNA signal (relative luminescence units) [24]: 2
AtheNA signal (relative luminescence units) [25]: 5
AtheNA signal (relative luminescence units) [26]: 3
AtheNA signal (relative luminescence units) [27]: 7
AtheNA signal (relative luminescence units) [28]: 2
AtheNA signal (relative luminescence units) [29]: 3
AtheNA signal (relative luminescence units) [30]: 1
AtheNA signal (relative luminescence units) [31]: 3
AtheNA signal (relative luminescence units) [32]: 2
AtheNA signal (relative luminescence units) [33]: 5
AtheNA signal (relative luminescence units) [34]: 2
AtheNA signal (relative luminescence units) [35]: 2

CH105 (antibody)
LogAUC [36]: 11.3
LogAUC [37]: 11.7
LogAUC [38]: 10.9
LogAUC [39]: 11.2
LogAUC [40]: 8.63
LogAUC [41]: 10.2
LogAUC [42]: 10.6
LogAUC [43]: 10.6
LogAUC [44]: 11.1
LogAUC [45]: 9.33
LogAUC [46]: 11
LogAUC [47]: 12.7
LogAUC [48]: 8.52
LogAUC [49]: 9.67
LogAUC [50]: 13.7
LogAUC [51]: 10.7
LogAUC [52]: 10.4
LogAUC [53]: 10.2
LogAUC [54]: 12.4
LogAUC [55]: 12.8
LogAUC [56]: 12
LogAUC [57]: 10.7
LogAUC [58]: 10.6
LogAUC [59]: 9.86
LogAUC [60]: 6.66
LogAUC [61]: 7.7
LogAUC [62]: 11.1
LogAUC [63]: 6.58
LogAUC [64]: 8.61
LogAUC [65]: 6.55
LogAUC [66]: 6.03
LogAUC [67]: 4.58
LogAUC [68]: 4.94
LogAUC [69]: 12.2
